Data published in patent US7071214B2, “Compounds and compositions for delivering active agents” (Emisphere Technologies, Inc., priority 1997, dated 2006).
Read-outs that look alike come from different tables or passages of the source.

Set-up: species or system Rats
Settings: rat, in vivo

Row | Molecule | Mean peak serum interferon concentration (1 mg/kg) | Mean peak serum interferon concentration (po, 1 mg/kg) | Mean peak serum interferon concentration (50 mg/kg)
1 | interferon | 79±100 | 1951±1857 | –
2 | O=C(O)CCCc1ccc(NC(=O)COc2ccccc2)cc1 [Compound 9, 4-(4-(phenoxyacetyl)aminophenyl)butyric acid] | – | – | 2611±695
